Test results reported in article PMC5083130.

What was measured:
[1] = biological target: NCS-Orf16 (S. carzinostaticus); test: SEC
[2] = biological target: SgcJ (Streptomyces globisporus); test: SEC

stoichiometry N [1] | stoichiometry N [2] | Substance
2 | – | NCS-Orf16 (natural protein)
– | 2 | SgcJ (natural protein)
